Assays:
3xFLAG-mScarlet-APC = 3xFLAG-mScarlet-APC (human (endogenous in HEK293), UniProt P25054 1-2843); assay: affinity purification with mass spectrometry
3xFLAG-eGFP-Axin1 = 3xFLAG-eGFP-Axin1 (UniProt O15169 1-862); assay: affinity purification with mass spectrometry
3xFLAG-eGFP-Axin1, sequence (O15169 whole entry): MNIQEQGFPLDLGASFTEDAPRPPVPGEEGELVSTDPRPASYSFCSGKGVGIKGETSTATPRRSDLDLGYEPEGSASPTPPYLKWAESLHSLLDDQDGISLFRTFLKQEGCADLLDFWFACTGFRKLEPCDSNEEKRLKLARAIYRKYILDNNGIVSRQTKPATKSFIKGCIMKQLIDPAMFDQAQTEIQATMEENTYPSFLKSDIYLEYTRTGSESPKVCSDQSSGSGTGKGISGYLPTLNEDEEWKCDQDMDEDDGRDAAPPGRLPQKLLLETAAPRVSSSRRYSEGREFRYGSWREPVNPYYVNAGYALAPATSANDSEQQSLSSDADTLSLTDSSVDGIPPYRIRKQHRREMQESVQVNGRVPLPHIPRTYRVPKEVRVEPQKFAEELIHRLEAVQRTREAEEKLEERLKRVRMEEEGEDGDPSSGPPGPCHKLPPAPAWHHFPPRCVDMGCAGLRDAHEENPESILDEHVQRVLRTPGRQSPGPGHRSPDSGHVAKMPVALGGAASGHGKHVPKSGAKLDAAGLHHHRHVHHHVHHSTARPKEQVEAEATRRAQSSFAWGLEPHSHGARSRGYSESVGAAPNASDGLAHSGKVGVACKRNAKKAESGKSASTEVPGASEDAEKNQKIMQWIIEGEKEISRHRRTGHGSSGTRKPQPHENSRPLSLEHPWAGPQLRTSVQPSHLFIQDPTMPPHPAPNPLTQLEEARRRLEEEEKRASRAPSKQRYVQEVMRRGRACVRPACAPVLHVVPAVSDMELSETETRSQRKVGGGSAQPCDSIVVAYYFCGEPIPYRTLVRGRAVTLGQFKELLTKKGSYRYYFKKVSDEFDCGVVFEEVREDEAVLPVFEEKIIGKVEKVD

3xFLAG-mScarlet-APC, sequence (P25054 whole entry): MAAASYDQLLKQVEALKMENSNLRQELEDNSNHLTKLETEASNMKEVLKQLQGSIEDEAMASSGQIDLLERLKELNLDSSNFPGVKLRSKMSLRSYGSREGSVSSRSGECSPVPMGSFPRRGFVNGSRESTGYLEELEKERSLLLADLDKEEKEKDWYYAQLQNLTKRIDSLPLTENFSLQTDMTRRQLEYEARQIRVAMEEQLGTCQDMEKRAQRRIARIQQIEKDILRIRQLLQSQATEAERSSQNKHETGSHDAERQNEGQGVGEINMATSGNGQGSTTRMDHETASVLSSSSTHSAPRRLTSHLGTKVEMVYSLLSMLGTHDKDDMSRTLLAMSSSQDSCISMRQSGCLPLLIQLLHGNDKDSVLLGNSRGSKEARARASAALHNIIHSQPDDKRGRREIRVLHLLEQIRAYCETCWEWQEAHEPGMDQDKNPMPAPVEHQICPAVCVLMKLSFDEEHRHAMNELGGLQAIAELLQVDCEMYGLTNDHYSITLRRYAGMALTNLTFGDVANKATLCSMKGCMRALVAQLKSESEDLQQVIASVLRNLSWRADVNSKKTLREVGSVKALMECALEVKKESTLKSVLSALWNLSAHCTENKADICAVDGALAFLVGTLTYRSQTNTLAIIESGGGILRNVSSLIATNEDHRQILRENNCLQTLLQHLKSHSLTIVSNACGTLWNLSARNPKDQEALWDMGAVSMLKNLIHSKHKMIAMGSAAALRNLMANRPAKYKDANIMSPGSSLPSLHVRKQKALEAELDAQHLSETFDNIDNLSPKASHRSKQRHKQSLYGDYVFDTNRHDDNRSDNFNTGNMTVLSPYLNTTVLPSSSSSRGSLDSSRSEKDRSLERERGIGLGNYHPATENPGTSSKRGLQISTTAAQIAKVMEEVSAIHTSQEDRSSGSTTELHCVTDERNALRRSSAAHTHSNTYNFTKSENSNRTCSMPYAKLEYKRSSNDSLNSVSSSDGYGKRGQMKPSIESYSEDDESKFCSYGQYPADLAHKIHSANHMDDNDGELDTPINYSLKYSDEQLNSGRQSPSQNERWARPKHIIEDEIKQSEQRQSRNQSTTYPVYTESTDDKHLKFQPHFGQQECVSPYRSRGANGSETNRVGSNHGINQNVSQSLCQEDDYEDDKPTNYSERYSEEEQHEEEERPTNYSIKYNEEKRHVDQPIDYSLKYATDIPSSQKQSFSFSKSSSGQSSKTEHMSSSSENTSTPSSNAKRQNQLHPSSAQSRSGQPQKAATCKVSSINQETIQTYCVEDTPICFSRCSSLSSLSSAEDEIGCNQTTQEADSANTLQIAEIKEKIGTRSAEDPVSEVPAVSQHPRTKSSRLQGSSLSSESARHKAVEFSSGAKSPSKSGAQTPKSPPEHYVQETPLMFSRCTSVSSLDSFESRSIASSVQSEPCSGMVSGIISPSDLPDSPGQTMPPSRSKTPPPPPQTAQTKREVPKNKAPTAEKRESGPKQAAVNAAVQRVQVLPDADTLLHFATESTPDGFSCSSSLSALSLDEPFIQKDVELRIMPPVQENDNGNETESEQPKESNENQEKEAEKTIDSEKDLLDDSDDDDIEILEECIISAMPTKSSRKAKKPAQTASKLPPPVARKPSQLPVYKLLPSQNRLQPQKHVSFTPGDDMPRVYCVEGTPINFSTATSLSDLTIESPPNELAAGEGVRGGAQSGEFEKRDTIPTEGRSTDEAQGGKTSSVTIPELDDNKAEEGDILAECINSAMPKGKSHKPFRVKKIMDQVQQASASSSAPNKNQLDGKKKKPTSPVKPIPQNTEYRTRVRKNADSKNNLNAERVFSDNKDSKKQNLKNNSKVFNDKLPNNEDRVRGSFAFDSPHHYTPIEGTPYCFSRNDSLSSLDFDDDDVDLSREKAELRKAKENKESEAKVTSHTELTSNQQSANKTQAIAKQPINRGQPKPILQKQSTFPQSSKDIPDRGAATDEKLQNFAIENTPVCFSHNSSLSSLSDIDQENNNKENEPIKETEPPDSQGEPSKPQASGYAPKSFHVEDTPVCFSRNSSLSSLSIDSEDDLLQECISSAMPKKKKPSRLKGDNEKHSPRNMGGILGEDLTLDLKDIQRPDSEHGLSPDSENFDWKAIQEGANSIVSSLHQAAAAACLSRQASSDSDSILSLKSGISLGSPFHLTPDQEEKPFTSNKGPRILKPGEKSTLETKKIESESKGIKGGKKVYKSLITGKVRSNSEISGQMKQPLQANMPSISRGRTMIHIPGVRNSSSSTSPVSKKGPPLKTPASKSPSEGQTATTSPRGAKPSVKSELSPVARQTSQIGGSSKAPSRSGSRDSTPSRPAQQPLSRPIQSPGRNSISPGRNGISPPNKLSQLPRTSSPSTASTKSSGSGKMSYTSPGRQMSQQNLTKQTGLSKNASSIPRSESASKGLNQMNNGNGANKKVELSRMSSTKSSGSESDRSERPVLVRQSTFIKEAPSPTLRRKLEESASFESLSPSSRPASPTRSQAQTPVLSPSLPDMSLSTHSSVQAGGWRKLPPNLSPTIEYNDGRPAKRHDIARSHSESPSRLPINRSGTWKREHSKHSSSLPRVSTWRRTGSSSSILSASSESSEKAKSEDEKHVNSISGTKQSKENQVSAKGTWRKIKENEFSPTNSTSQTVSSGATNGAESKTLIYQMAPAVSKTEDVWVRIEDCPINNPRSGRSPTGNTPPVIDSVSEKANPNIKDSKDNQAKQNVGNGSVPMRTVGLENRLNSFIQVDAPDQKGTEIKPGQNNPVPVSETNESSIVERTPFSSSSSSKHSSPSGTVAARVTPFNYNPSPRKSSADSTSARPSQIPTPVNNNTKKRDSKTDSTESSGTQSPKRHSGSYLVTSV

B1: β-catenin (natural protein, human (endogenous in HEK293 and HeLa), UniProt P35222 1-781, looked up)
chain: MATQADLMELDMAMEPDRKAAVSHWQQQSYLDSGIHSGATTTAPSLSGKGNPEEEDVDTSQVLYEWEQGFSQSFTQEQVADIDGQYAMTRAQRVRAAMFPETLDEGMQIPSTQFDAAHPTNVQRLAEPSQMLKHAVVNLINYQDDAELATRAIPELTKLLNDEDQVVVNKAAVMVHQLSKKEASRHAIMRSPQMVSAIVRTMQNTNDVETARCTAGTLHNLSHHREGLLAIFKSGGIPALVKMLGSPVDSVLFYAITTLHNLLLHQEGAKMAVRLAGGLQKMVALLNKTNVKFLAITTDCLQILAYGNQESKLIILASGGPQALVNIMRTYTYEKLLWTTSRVLKVLSVCSSNKPAIVEAGGMQALGLHLTDPSQRLVQNCLWTLRNLSDAATKQEGMEGLLGTLVQLLGSDDINVVTCAAGILSNLTCNNYKNKMMVCQVGGIEALVRTVLRAGDREDITEPAICALRHLTSRHQEAEMAQNAVRLHYGLPVVVKLLHPPSHWPLIKATVGLIRNLALCPANHAPLREQGAIPRLVQLLVRAHQDTQRRTSMGGTQQQFVEGVRMEEIVEGCTGALHILARDVHNRIVIRGLNTIPLFVQLLYSPIENIQRVAAGVLCELAQDKEAAEAIEAEGATAPLTELLHSRNEGVATYAAAVLFRMSEDKPQDYKKRLSVELTSSLFRTEPMAWNETADLGLDIGAQGEPLGYRQDDPSYRSFHSGGYGQDALGMDPMMEHEMGGHHPGADYPVDGLPDLGHAQDLMDGLPPGDSNQLAWFDTDL
**Q.** What does the source list for B1?
**A.** fold reduction of the interaction after puromycin (3xFLAG-mScarlet-APC): ~4 fold; fold decrease in binding after puromycin (3xFLAG-eGFP-Axin1): ~10 fold

B2: α-catenin (natural protein, human (endogenous in HEK293 and HeLa), UniProt P35221 1-906, looked up)
chain: MTAVHAGNINFKWDPKSLEIRTLAVERLLEPLVTQVTTLVNTNSKGPSNKKRGRSKKAHVLAASVEQATENFLEKGDKIAKESQFLKEELVAAVEDVRKQGDLMKAAAGEFADDPCSSVKRGNMVRAARALLSAVTRLLILADMADVYKLLVQLKVVEDGILKLRNAGNEQDLGIQYKALKPEVDKLNIMAAKRQQELKDVGHRDQMAAARGILQKNVPILYTASQACLQHPDVAAYKANRDLIYKQLQQAVTGISNAAQATASDDASQHQGGGGGELAYALNNFDKQIIVDPLSFSEERFRPSLEERLESIISGAALMADSSCTRDDRRERIVAECNAVRQALQDLLSEYMGNAGRKERSDALNSAIDKMTKKTRDLRRQLRKAVMDHVSDSFLETNVPLLVLIEAAKNGNEKEVKEYAQVFREHANKLIEVANLACSISNNEEGVKLVRMSASQLEALCPQVINAALALAAKPQSKLAQENMDLFKEQWEKQVRVLTDAVDDITSIDDFLAVSENHILEDVNKCVIALQEKDVDGLDRTAGAIRGRAARVIHVVTSEMDNYEPGVYTEKVLEATKLLSNTVMPRFTEQVEAAVEALSSDPAQPMDENEFIDASRLVYDGIRDIRKAVLMIRTPEELDDSDFETEDFDVRSRTSVQTEDDQLIAGQSARAIMAQLPQEQKAKIAEQVASFQEEKSKLDAEVSKWDDSGNDIIVLAKQMCMIMMEMTDFTRGKGPLKNTSDVISAAKKIAEAGSRMDKLGRTIADHCPDSACKQDLLAYLQRIALYCHQLNICSKVKAEVQNLGGELVVSGVDSAMSLIQAAKNLMNAVVQTVKASYVASTKYQKSQGMASLNLPAVSWKMKAPEKKPLVKREKQDETQTKIKRASQKKHVNPVQALSEFKAMDSI
**Q.** Which “fold decrease in binding after puromycin” value (3xFLAG-eGFP-Axin1) does the source give for B2 here?
**A.** ~10 fold
